Legend:
[1] = tested on: transgenic mouse model p16-3MR; conditions: cited from earlier work; for Effect of elimination of senescent cells on running activity and strength: after doxorubicin or paclitaxel
[2] = tested on: transgenic mouse model p16-3MR; conditions: cited from earlier work
[3] = tested on: breast cancer cells (MMTV-PyMT); conditions: cited from earlier work
[4] = tested on: transgenic mouse model p16-3MR; conditions: cited from earlier work; for Induction of senescence in vivo: keratinocytes, endothelial cells, fibroblasts and smooth muscle cells; for p16INK4a expression in the skin: mice administered the agent
[5] = tested on: human histiocytic lymphoma U937 cell line; test: Senescence-associated β-galactosidase assay by fluorescent microscope imaging; format: cell-based
Description: Cells from the human histiocytic lymphoma U937 cell line were treated with doxorubicin, a chemotherapeutic agent, to induce senescence. Cells were treated with 0 μM, 0.01 μM, 0.1 μM or 1 μM doxorubicin for 3 days, or were treated with 0 μM, 0.1 μM or 1 μM doxorubicin for 6 days. Senescence was measured with a senescence-associated β-galactosidase assay by fluorescent microscope imaging.

[6] = tested on: murine embryonic fibroblasts, murine dermal fibroblasts and human dermal fibroblasts; conditions: fibroblasts treated in vitro; cited from earlier work
[7] = target: carboxymethyl lysine conjugated to keyhole limpet hemocyanin (CML-KLH); test: direct ELISA, CML-KLH coat 1 ug/mL, antibody at 16.67 ug/mL
[8] = target: carboxymethyl lysine conjugated to keyhole limpet hemocyanin (CML-KLH); test: direct ELISA, CML-KLH coat 1 ug/mL, antibody at 50 ug/mL
[9] = target: carboxymethyl lysine conjugated to keyhole limpet hemocyanin (CML-KLH); test: direct ELISA, CML-KLH coat 1 ug/mL, antibody at 0.07 ug/mL
[10] = target: carboxymethyl lysine conjugated to keyhole limpet hemocyanin (CML-KLH); test: direct ELISA, CML-KLH coat 1 ug/mL, antibody at 0.21 ug/mL
[11] = target: carboxymethyl lysine conjugated to keyhole limpet hemocyanin (CML-KLH); test: direct ELISA, CML-KLH coat 1 ug/mL, antibody at 1.85 ug/mL
[12] = target: carboxymethyl lysine conjugated to keyhole limpet hemocyanin (CML-KLH); test: direct ELISA, CML-KLH coat 1 ug/mL, antibody at 0 ug/mL (buffer control, background)
[13] = target: carboxymethyl lysine conjugated to keyhole limpet hemocyanin (CML-KLH); test: direct ELISA, CML-KLH coat 1 ug/mL, antibody at 0.62 ug/mL
[14] = target: carboxymethyl lysine conjugated to keyhole limpet hemocyanin (CML-KLH); test: direct ELISA, CML-KLH coat 1 ug/mL, antibody at 5.56 ug/mL
[15] = Direct binding ELISA, CML coat
From the text: (§1) The binding of the murine (parental) and chimeric anti-AGE antibodies described in Example 3 was investigated by a direct binding ELISA. An anti-carboxymethyl lysine (CML) antibody (R&D Systems, MAB3247) was used as a control. CML was conjugated to KLH (CML-KLH) and both CML and CML-KLH were coated overnight onto an ELISA plate. HRP-goat anti-mouse Fc was used to detect the control and murine (parental) anti-AGE antibodies. HRP-goat anti-human Fc was used to detect the chimeric anti-AGE antibody.
(§2) The antigens were diluted to 1 μg/mL in 1× phosphate buffer at pH 6.5. A 96-well microtiter ELISA plate was coated with 100 μL/well of the diluted antigen and let sit at 4° C. overnight. The plate was blocked with 1×PBS, 2.5% BSA and allowed to sit for 1-2 hours the next morning at room temperature. The antibody samples were prepared in serial dilutions with 1×PBS, 1% BSA with the starting concentration of 50 μg/mL. Secondary antibodies were diluted 1:5,000. 100 μL of the antibody dilutions was applied to each well. The plate was incubated at room temperature for 0.5-1 hour on a microplate shaker. The plate was washed 3 times with 1×PBS. 100 μL/well diluted HRP-conjugated goat anti-human Fc secondary antibody was applied to the wells. The plate was incubated for 1 hour on a microplate shaker. The plate was then washed 3 times with 1×PBS. 100 μL HRP substrate TMB was added to each well to develop the plate. After 3-5 minutes elapsed, the reaction was terminated by adding 100 μL of 1N HCl. A second direct binding ELISA was performed with only CML coating. The absorbance at OD450 was read using a microplate reader.
(§3) The OD450 absorbance raw data for the CML and CML-KLH ELISA is shown in the plate map below. 48 of the 96 wells in the well plate were used. Blank wells in the plate map indicate unused wells.
The OD450 absorbance raw data for the CML-only ELISA is shown in the plate map below. 24 of the 96 wells in the well plate were used. Blank wells in the plate map indicate unused wells.

CML-KLH = test: Direct binding ELISA, CML-KLH coat; conditions: for OD450 absorbance: CML-KLH Coat
From the text: as §1, §2, §3

CC1(C)CCC(c2ccc(Cl)cc2)=C(CN2CCN(c3ccc(C(=O)NS(=O)(=O)c4ccc(N[C@H](CCN5CCOCC5)CSc5ccccc5)c(S(=O)(=O)C(F)(F)F)c4)cc3)CC2)C1 [ABT-263]
Effect of elimination of senescent cells on running activity and strength [1]: nearly reversed the decline in running activity and improved the loss of strength

Nc1nc(O)c2ncn(COC(CO)CO)c2n1 [GCV, ganciclovir]
Effect of elimination of senescent cells on running activity and strength [1]: nearly reversed the decline in running activity and improved the loss of strength
Effect of elimination of senescent cells on inflammatory factors, HPCs and cardiac function ([2]; after doxorubicin): reduced circulating inflammatory factors, promoted the functional recovery of HPCs and prevented cardiac dysfunction
Survival and cancer metastases vs doxorubicin followed by vehicle ([3]; doxorubicin followed by GCV): increased survival and reduced cancer metastases
Tumor growth, metastases and metastatic foci vs vehicle ([3]; surgical removal of palpable tumors prior to treatment): smaller tumor growth, reduced cancer metastases and fewer metastatic foci

N.N.[Cl][Pt][Cl] [cisplatin]
Induction of senescence in vivo [4]: induced senescence in various cell types
p16INK4a expression in the skin [4]: elevated p^16INK4a expression in the skin

COc1cccc2c1C(=O)c1c(O)c3c(c(O)c1C2=O)C[C@@](O)(C(=O)CO)C[C@@H]3O[C@H]1C[C@H](N)[C@H](O)[C@H](C)O1 [doxorubicin]
Cells that fluoresce (senescence-associated β-galactosidase) ([5]; 0.01 μM for 3 days): about 85%
Cells that fluoresce (senescence-associated β-galactosidase) ([5]; 0.1 μM for 3 days): about 65%
Cells that fluoresce (senescence-associated β-galactosidase) ([5]; 0.1 μM for 6 days): about 85%
Cell death ([5]; 1 μM): significant cell death
Cells that fluoresce (senescence-associated β-galactosidase) ([5]; 1 μM for 3 days): about 60%
Cells that fluoresce (senescence-associated β-galactosidase) ([5]; 1 μM for 6 days): about 85%
Concentration of peak senescence induction ([5]; treatment for 3-6 days): 0.1 µM
Chemotherapy-induced fatigue and strength ([1]; running activity): chemotherapy-induced fatigue, as measured by running activity, and decline in strength
Effect on SASP factor genes, HPC function and cardiac function ([2]; genetically engineered mice): increased expression of SASP factor genes associated with inflammation, reduction of hematopoietic progenitor cell (HPC) function and reduction in cardiac function
Induction of senescence in vivo [4]: induced senescence in various cell types
Induction of cellular senescence (SA-β-gal, DNA synthesis, p16INK4a mRNA, SASP, p21, LaminB1) [6]: symptoms of cellular senescence

CC(=O)O[C@H]1C(=O)[C@@]2(C)[C@H]([C@H](OC(=O)c3ccccc3)[C@]3(O)C[C@H](OC(=O)[C@H](O)[C@@H](NC(=O)c4ccccc4)c4ccccc4)C(C)=C1C3(C)C)[C@]1(OC(C)=O)CO[C@@H]1C[C@@H]2O [paclitaxel]
Induction of cellular senescence (SA-β-gal, DNA synthesis, p16INK4a mRNA, SASP, p21, LaminB1) [6]: symptoms of cellular senescence

Cn1nnc2c(C(N)=O)ncn2c1=O [temozolomide]
Induction of senescence in vivo [4]: induced senescence in various cell types
p16INK4a expression in the skin [4]: elevated p^16INK4a expression in the skin

carboxymethyl lysine MAb (Clone 318003), R&D Systems, catalog no. MAB3247 (antibody)
OD450 [7]: 0.312 OD450
OD450 [8]: 0.462 OD450
OD450 [9]: 0.086 OD450
OD450 [10]: 0.075 OD450
OD450 [11]: 0.092 OD450
OD450 [12]: 0.09 OD450
OD450 [13]: 0.083 OD450
OD450 [14]: 0.165 OD450

B1: Parental Anti-AGE: murine anti-AGE IgG2b antibody, heavy chain DNA SEQ ID NO: 12, kappa light chain DNA SEQ ID NO: 14 (antibody)
heavy: MDPKGSLSWRILLFLSLAFELSYGQVQLLQPGAELVKPGASVKLACKASGYLFTTYWMHWLKQRPGQGLEWIGEISPTNGRAYYNARFKSEATLTVDKSSNTAYMQLSSLTSEASAVYYCARAYGNYEFAYWGQGTLVTVSVAKTTPPSVYPLAPGCGDTTGSSVTLGCLVKGYFPESVTVTWNSGSLSSSVHTFPALLQSGLYTMSSSVTVPSSTWPSQTVTCSVAHPASSTTVDKKLEPSGPISTINPCPPCKECHKCPAPNLEGGPSVFIFPPNIKDVLMISLTPKVTCVVVDVSEDDPDVQISWFVNNVEVHTAQTQTHREDYNSTIRVVSTLPIQHQDWMSGKEFKCKVNNKDLPSPIERTISKIKGLVRAPQVYILPPPAEQLSRKDVSLTCLVVGFNPGDISVEWTSNGHTEENYKDTAPVLDSDGSYFIYSKLNMKTSKWEKTDSFSCNVRHEGLKNYYLKKTISRSPG
light: METDTLLLWVLLLWVPGSTGDVVMTQTPLSLPVSLGDQASISCRSRQSLVNSNGNTFLQWYLQKPGQSPKLLIYKVSLRFSGVPDRFSGSGSGTDFTLKISRVEAEDLGLYFCSQSTHVPPTFGGGTKLEIKRADAAPTVSIFPPSSEQLTSGGASVVCFLNNFYPKDINVKWKIDGSERQNGVLNSWTDQDSKDSTYSMSSTLTLTKDEYERHNSYTCEATHKTSTSPIVKSFNRNEC
modifications: Murine anti-AGE IgG2b heavy chain; Murine anti-AGE Kappa light chain
OD450 absorbance ([15]; CML Coat (CML and CML-KLH ELISA), antibody 0.07 μg/mL): 0.096
OD450 absorbance ([15]; CML Coat (CML and CML-KLH ELISA), antibody 0.21 μg/mL): 0.096
OD450 absorbance ([15]; CML Coat (CML and CML-KLH ELISA), antibody 0.62 μg/mL): 0.085
OD450 absorbance ([15]; CML Coat (CML and CML-KLH ELISA), antibody 1.85 μg/mL): 0.099
OD450 absorbance ([15]; CML Coat (CML and CML-KLH ELISA), antibody 5.56 μg/mL): 0.115
OD450 absorbance ([15]; CML Coat (CML and CML-KLH ELISA), antibody 16.67 μg/mL): 0.13
OD450 absorbance ([15]; CML Coat (CML and CML-KLH ELISA), antibody 50 μg/mL): 0.142
Binding to CML (in words) ([15]; direct binding ELISA): very weak to no binding
OD450 absorbance ([15]; second, CML-only ELISA, antibody 0.068587 μg/mL): 0.055
OD450 absorbance ([15]; second, CML-only ELISA, antibody 0.205761 μg/mL): 0.056
OD450 absorbance ([15]; second, CML-only ELISA, antibody 0.617284 μg/mL): 0.103
OD450 absorbance ([15]; second, CML-only ELISA, antibody 1.851852 μg/mL): 0.078
OD450 absorbance ([15]; second, CML-only ELISA, antibody 5.555556 μg/mL): 0.166
OD450 absorbance ([15]; second, CML-only ELISA, antibody 16.66667 μg/mL): 0.226
OD450 absorbance ([15]; second, CML-only ELISA, antibody 50 μg/mL): 0.165
OD450 absorbance (CML-KLH; antibody 0.07 μg/mL): 0.086
OD450 absorbance (CML-KLH; antibody 0.21 μg/mL): 0.066
OD450 absorbance (CML-KLH; antibody 0.62 μg/mL): 0.072
OD450 absorbance (CML-KLH; antibody 1.85 μg/mL): 0.063
OD450 absorbance (CML-KLH; antibody 5.56 μg/mL): 0.063
OD450 absorbance (CML-KLH; antibody 16.67 μg/mL): 0.067
OD450 absorbance (CML-KLH; antibody 50 μg/mL): 0.092
Binding to CML-KLH (in words) (CML-KLH; direct binding ELISA): very weak to no binding
